Here are results for three molecules from publication PMC6698902.

Holding throughout (experiment): fluorescence anisotropy
For orientation: Fluorescence polarisation rises when a labelled molecule tumbles more slowly, as on binding a larger partner.

The target in series [1] is T1, A3B-CTD E255A (inactive, 'WT') (Homo sapiens, UniProt Q9UH17 187-382, E255A).
Series [2] has as its target A3B-CTD P206G (Homo sapiens, UniProt Q9UH17 187-382, E255A;P206G).
For series [3], the target named is A3B-CTD R211A (Homo sapiens, UniProt Q9UH17 187-382, E255A;R211A).
A3B-CTD R211A, sequence (Q9UH17 187-382 R211A/E255A): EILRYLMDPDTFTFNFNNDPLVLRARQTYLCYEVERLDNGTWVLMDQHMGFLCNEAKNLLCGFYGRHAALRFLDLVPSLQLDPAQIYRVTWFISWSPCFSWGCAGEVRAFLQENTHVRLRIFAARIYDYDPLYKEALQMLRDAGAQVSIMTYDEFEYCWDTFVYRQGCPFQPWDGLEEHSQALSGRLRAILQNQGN
The target in series [4] is A3B-CTD Y315F (Homo sapiens, UniProt Q9UH17 187-382, E255A;Y315F).
A3B-CTD Y315F, sequence (Q9UH17 187-382 E255A/Y315F): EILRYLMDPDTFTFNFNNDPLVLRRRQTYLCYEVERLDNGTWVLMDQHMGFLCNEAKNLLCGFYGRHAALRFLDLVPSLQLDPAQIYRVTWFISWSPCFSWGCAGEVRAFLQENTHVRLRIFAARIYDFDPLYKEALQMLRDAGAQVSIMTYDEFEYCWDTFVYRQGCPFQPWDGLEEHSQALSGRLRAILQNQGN
In series [5] the target is T1, A3B-CTD E255A (inactive, 'WT'). The source holds these as a separate data set.

T1 sequence (Q9UH17 187-382 E255A): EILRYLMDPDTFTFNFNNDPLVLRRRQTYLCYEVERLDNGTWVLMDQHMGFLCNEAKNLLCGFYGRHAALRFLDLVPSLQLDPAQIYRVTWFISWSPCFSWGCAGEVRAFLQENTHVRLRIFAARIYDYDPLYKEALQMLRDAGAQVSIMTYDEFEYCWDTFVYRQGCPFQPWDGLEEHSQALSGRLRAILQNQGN
A3B-CTD P206G, sequence (Q9UH17 187-382 P206G/E255A): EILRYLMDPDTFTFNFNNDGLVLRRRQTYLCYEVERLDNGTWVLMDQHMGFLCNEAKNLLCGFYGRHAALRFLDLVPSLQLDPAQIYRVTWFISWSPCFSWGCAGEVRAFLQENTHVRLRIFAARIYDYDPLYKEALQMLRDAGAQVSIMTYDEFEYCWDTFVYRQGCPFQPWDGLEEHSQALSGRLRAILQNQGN

B1: DNA hairpin (structured_DNA)
DNA: GCCATCATTCGATGGG
One may read the Kd as the constant that tells how readily two partners part at equilibrium. A higher Kd goes with a looser complex. With B1, the Kd in series [1] stood at 2 µM. Further, the binding result in series [2] is “no binding”; in series [3] it was “no binding”; in series [4], “binds”.

B2: RNA hairpin (structured_RNA)
RNA: GCCAUCUAUCGAUGG
As to B2, the binding result in series [5] is “no binding”.

B3: polyA TCG (linear DNA) (ssDNA)
DNA: AAAAAAAATCGAAAA
Consider B3, for which, in series [1], binding was put at a Kd of 5.4 µM. For the same molecule, the binding result in series [2] and in series [3] was “no binding” throughout.
